Series [1] has as its system PMNs. The series is described as follows: Phagocytosis of zymosan particles by PMNs. The series is classed as cell-based, human. The note with it: neutrophils, zymosan 2 h. The procedure:
Figure S7. NA-11 activates PFKL to prevent the oxidative burst and impair neutrophil defenses, related to Figures 4 and 6
(A) PFK1 activity in PMN lysates. Cells were pretreated with 0.5 mM NA-11, 5 mM LDC7559, 100 mM apocynin, 200 mM thionicotinamid e (TN), 1 mM MEK inhibitor U0126, or DMSO vehicle for 30 min, or 1 mM proteasome inhibitor bortezomib for 1 h, and then activated with 50 nM PMA for 30 min where indicated. Bars represent the mean ± s.d. of cells from 3 donors. (B) NADH:NAD+ ratio in PMA-activated PMNs. Cells were pretreated with 0.5 mM NA-11 or DMSO vehicle for 30 min, and then activated with 50 nM PMA for 30 min. Data are the mean ± s.d. of cells from 3 donors. (C) Immunolabeling of citrullinated histone H3 (magenta) and myeloperoxidase (red) in PMNs pretreated with 0.5 mM NA-11 or DMSO vehicle for 30 min and then stimulated for 4 h with 50 nM PMA, 10 mg/mL extracellular LPS, 0.5 mg/mL cholesterol crystals, or 25 mM nigericin. Chromatin is stained green. Scale bar, […]. Results are representative of 3 independent experiments.
(D) Fluorescence micrographs of PMNs pretreated with 0.5 mM NA-11, 200 mM thionicotinamide (TN), 0.5 mM NA-4, or DMSO vehicle for 30 min, and then incubated with serum-opsonized Texas Red-conjugated zymosan particles (10 mg/mL) for 2 h. […]

The test system of series [2] is E. coli. The series is described as follows: Phagocytosis assay: E. coli C.F.U. recovered from PMNs. The series is classed as cell-based, human. To be noted: neutrophils pretreated 30 min. The procedure:
Neutrophils (1 × 10^6) were cultured in 6-well tissue in RPMI medium containing DMSO vehicle, 0.5 μM NA-11, 0.5 μM NA-4, 100 μM Apocynin or 100 μM thionicotinamide (TN) for 30 min. E. coli grown in LB broth overnight (2 mL) were opsonized with human serum (1 mL pooled from three donors) for 1 h at room temperature. Opsonized bacteria were washed with PBS, resuspended in LB broth to an OD600of 0.1 and then added to cultured neutrophils at an MOI of 1 for 30 min. Cells were washed with medium three times and then cultured with 300 μg/mL gentamicin for 2 h to kill any extracellular bacteria. Cells were then washed again, twice with medium and once with PBS. To release phagocytosed bacteria, neutrophils were lysed in 0.05% saponin in PBS. Lysates were passed through a 25’ gauge needed several times and the number of viable phagocytosed bacteria was determined by colony counting.

In series [3] the test system is PMNs. The series is described as follows: ROS detection assay (ROS-Glo) in neutrophils. In kind it is cell-based, human. To be noted: over 2 h. As for the experimental part:
ROS were measured using the ROS-Glo bioluminescent assay (Promega) for the direct detection of H2O2. Briefly, neutrophils (2 × 10^4) were plated in white 96-well plates (Greiner) in high glucose DMEM medium. Cells were cultured with DMSO vehicle, 0.5 μM NA-11, 5 μM LDC7559, 100 μM apocynin, or 200 μM thionicotinamide for 30 min, and then stimulated with 50 nM PMA or treated with 10 μg/mL zymosan beads, pre-opsonized in 20% serum for 30 min. Luminescence, after the addition of H2O2 substrate solution of 20 min, and then ROS-Glo detection solution for 20 min, was recorded on a plate reader (Envision).

Substrate in series [4]: O=C(CO)[C@@H](O)[C@H](O)[C@H](O)COP(=O)(O)O
The series is described as follows: Recombinant PFKM activity assay. To be noted: other: PFKM wild type, pH 7.0, 250 μM ATP, 25.0 °C. The series is classed as biochemical, human. From the text: (§1) Recombinant N-terminal His-tagged human PFKL (NP_002617), PFKM (NP_000280), and PFKP (NM_002627.4) were generated as described ([Webb et al., 2015], [2017]). Point mutants of PFK1 were generated using the QuikChange Lightning kit (Aligent).
(§2) His-tagged PFK1 was expressed and purified as described with slight modifications ([Webb et al., 2015], [2017]). Briefly, baculovirus was generated using the Bac-to-Bac Expression system (Invitrogen). PFK1 was expressed in 2-5 × 10^6 sf9 cells at a multiplicity of infection of two for 48 h. […] Protein was quantified using a Bradford Protein Assay kit (ThermoFisher Scientific), and aliquotes frozen in liquid nitrogen for storage at −80°C.
(§3) PFK1 activity was determined using the rate of FBP production via an auxiliary enzyme assay adapted to a 96-well format ([Brüser et al., 2012]; [Webb et al., 2015]). […] For assays containing FBP, the rate of ADP production was determined using the auxiliary enzymes pyruvate kinase (PK) and lactate dehydrogenase (LDH) (MilliporeSigma) in a buffer containing 250 μM phosphoenolpyruvic acid, […] NADH, 50 mM HEPES pH 7.5, 100 mM KCl, 1 mM DTT, and effector concentrations as described in the text. […] Absorbance at 340 nm was measured using a Varioskan LUX Multimode microplate reader (ThermoFisher). […]

Substrate in series [5]: O=C(CO)[C@@H](O)[C@H](O)[C@H](O)COP(=O)(O)O
The series is described as follows: Recombinant PFKM+pocket activity assay. The note with it: other: PFKM+pocket, pH 7.0, 250 μM ATP, 25.0 °C. The series is classed as biochemical, human.
Text: as §1, §2, §3

Substrate in series [6]: O=C(CO)[C@@H](O)[C@H](O)[C@H](O)COP(=O)(O)O
The series is described as follows: Recombinant PFKL activity assay (relief of ATP inhibition). The series is classed as biochemical, human. The note with it: other: PFKL wild type, pH 7.5, 225 μM ATP, 25.0 °C.
Text: as §1, §2, §3

Series [7] deals with the molecule itself. The series is described as follows: cryo-EM structure; 9 uM purified PFKL with 1 mM ATP, 2 mM F6P and 50 uM NA-11 in 20 mM HEPES pH 7.5, 1 mM DTT, 500 uM ammonium sulfate, 5% glycerol, 100 uM EDTA; refinement focused on a single, masked tetramer.
Substrate in series [8]: O=C(CO)[C@@H](O)[C@H](O)[C@H](O)COP(=O)(O)O
The series is described as follows: Recombinant PFKL3Mut activity assay. In kind it is biochemical, human. The note with it: other: PFKL3Mut, pH 7.5, 225 μM ATP, 25.0 °C.
Text: as §1, §2, §3

Substrate in series [9]: O=C(CO)[C@@H](O)[C@H](O)[C@H](O)COP(=O)(O)O
The series is described as follows: Recombinant PFKL−hook activity assay. The series is classed as biochemical, human. The note with it: other: PFKL−hook, pH 7.5, 225 μM ATP, 25.0 °C.
Text: as §1, §2, §3

Substrate in series [10]: O=C(CO)[C@@H](O)[C@H](O)[C@H](O)COP(=O)(O)O
The series is described as follows: Recombinant PFKL−pocket activity assay. In kind it is biochemical, human. To be noted: other: PFKL−pocket, pH 7.5, 225 μM ATP, 25.0 °C.
Text: as §1, §2, §3

From paper PMC8802628, “Selective activation of PFKL suppresses the phagocytic oxidative burst” (Cell, 2021) come the findings set out here.

Where a chain is given by its changes, count along the chain named. Names and notes keep the numbering of the source. Values joined by “and” are separate entries in the source; they are usually repeats but may differ in a detail not shown here. Identical values can stand only once.

With `NC(=S)c1cccnc1` [TN, thionicotinamide, reference compound], the “phagocytosis (intracellular zymosan particles)” value in series [1] is listed as “neither NA-11 nor TN affected phagocytosis”. For the same molecule, the “killing of phagocytosed bacteria (bacterial colonies recovered)” value in series [2] was “less efficient killers of phagocytosed bacteria”. Also, the “ROS production during phagocytosis of opsonized zymosan” value in series [3] is on record as “kept ROS production at basal levels”.

B1: human PFKM (Homo sapiens) (protein)
chain: MTHEEHHAAKTLGIGKAIAVLTSGGDAQGMNAAVRAVVRVGIFTGARVFFVHEGYQGLVDGGDHIKEATWESVSMMLQLGGTVIGSARCKDFREREGRLRAAYNLVKRGITNLCVIGGDGSLTGADTFRSEWSDLLSDLQKAGKITDEEATKSSYLNIVGLVGSIDNDFCGTDMTIGTDSALHRIMEIVDAITTTAQSHQRTFVLEVMGRHCGYLALVTSLSCGADWVFIPECPPDDDWEEHLCRRLSETRTRGSRLNIIIVAEGAIDKNGKPITSEDIKNLVVKRLGYDTRVTVLGHVQRGGTPSAFDRILGSRMGVEAVMALLEGTPDTPACVVSLSGNQAVRLPLMECVQVTKDVTKAMDEKKFDEALKLRGRSFMNNWEVYKLLAHVRPPVSKSGSHTVAVMNVGAPAAGMNAAVRSTVRIGLIQGNRVLVVHDGFEGLAKGQIEEAGWSYVGGWTGQGGSKLGTKRTLPKKSFEQISANITKFNIQGLVIIGGFEAYTGGLELMEGRKQFDELCIPFVVIPATVSNNVPGSDFSVGADTALNTICTTCDRIKQSAAGTKRRVFIIETMGGYCGYLATMAGLAAGADAAYIFEEPFTIRDLQANVEHLVQKMKTTVKRGLVLRNEKCNENYTTDFIFNLYSEEGKGIFDSRKNVLGHMQQGGSPTPFDRNFATKMGAKAMNWMSGKIKESYRNGRIFANTPDSGCVLGMRKRALVFQPVAELKDQTDFEHRIPKEQWWLKLRPILKILAKYEIDLDTSDHAHLEHITRKRSGEAAV
notes: made in house; host or cells: Sf9 insect cells (baculovirus)
In general, Km refers to the concentration of substrate that gives half-maximal velocity. For the molecule B1, the Michaelis constant (Km) in series [4] was determined as 610 ± 50 µM.

B2: PFKM+pocket (R315 to lysine) (Homo sapiens; R315K) (protein)
chain: B1 chain with R315K
notes: as for B1
In the case of B2, in series [5], the Michaelis constant (Km) is 1410 ± 80 µM.

B3: phosphofructokinase-1 liver type (PFKL), human, recombinant N-terminal His-tagged (enzyme)
chain: MAAVDLEKLRASGAGKAIGVLTSGGDAQGMNAAVRAVTRMGIYVGAKVFLIYEGYEGLVEGGENIKQANWLSVSNIIQLGGTIIGSARCKAFTTREGRRAAAYNLVQHGITNLCVIGGDGSLTGANIFRSEWGSLLEELVAEGKISETTARTYSHLNIAGLVGSIDNDFCGTDMTIGTDSALHRIMEVIDAITTTAQSHQRTFVLEVMGRHCGYLALVSALASGADWLFIPEAPPEDGWENFMCERLGETRSRGSRLNIIIIAEGAIDRNGKPISSSYVKDLVVQRLGFDTRVTVLGHVQRGGTPSAFDRILSSKMGMEAVMALLEATPDTPACVVTLSGNQSVRLPLMECVQMTKEVQKAMDDKRFDEATQLRGGSFENNWNIYKLLAHQKPPKEKSNFSLAILNVGAPAAGMNAAVRSAVRTGISHGHTVYVVHDGFEGLAKGQVQEVGWHDVAGWLGRGGSMLGTKRTLPKGQLESIVENIRIYGIHALLVVGGFEAYEGVLQLVEARGRYEELCIVMCVIPATISNNVPGTDFSLGSDTAVNAAMESCDRIKQSASGTKRRVFIVETMGGYCGYLATVTGIAVGADAAYVFEDPFNIHDLKVNVEHMTEKMKTDIQRGLVLRNEKCHDYYTTEFLYNLYSSEGKGVFDCRTNVLGHLQQGGAPTPFDRNYGTKLGVKAMLWLSEKLREVYRKGRVFANAPDSACVIGLKKKAVAFSPVTELKKDTDFEHRMPREQWWLSLRLMLKMLAQYRISMAAYVSGELEHVTRRTLSMDKGF
notes: human phosphofructokinase-1 liver type (PFKL), NP_002617; Homotetramer; In cryo-EM it mostly formed stacked pairs of tetramers; The sample held ATP, F6P and the small molecule NA-11; also called PFK1 liver isoform; wild-type PFKL; source: Sf9 cells (baculovirus, Bac-to-Bac), purified (HisPur cobalt resin, desalting column)
The term stoichiometry N denotes a count of units in the complex or per binding partner. Take B3: the Km in series [6] was 1970 ± 240 µM. Further, the “stoichiometry N” value in series [7] was 4 and 8.

B4: PFKL (K315R, V545L, and V582M), PFKL3Mut (Homo sapiens; K315R/V545L/V582M) (protein)
chain: B3 chain with K315R, V545L, V582M
notes: as for B1
With B4, the Michaelis-Menten constant (Km) in series [8] stood at 570 ± 60 µM.

B5: PFKL(V545L, V582M) (PFKL−hook) (Homo sapiens; V545L/V582M) (protein)
chain: B3 chain with V545L, V582M
notes: as for B1
For the molecule B5, the Km in series [9] was 1200 ± 90 µM.

B6: PFKL(K315R) (PFKL−pocket) (Homo sapiens; K315R) (protein)
chain: B3 chain with K315R
notes: as for B1
Regarding B6, in series [10], the Km is 2060 ± 120 µM.
